Laboratory results reported in US20250074980A1 (BRIGHAM AND WOMEN S HOSPITAL, published 2025).
Numbering of substitutions follows the chain as printed. In names and notes the source's numbering stands. Blank lines part the entries; values can stand above or below the binder they belong to.

How the values were obtained:
His-tagged CEACAM1 = target: T1, His-tagged CEACAM1 (human, UniProt P13688 35-428); experiment: SPR single-cycle, supernatant IgG captured
T1 construct: 45 kDa SPR analyte; also called CEACAM1-HIS; CEACAM1 analyte
T1 sequence: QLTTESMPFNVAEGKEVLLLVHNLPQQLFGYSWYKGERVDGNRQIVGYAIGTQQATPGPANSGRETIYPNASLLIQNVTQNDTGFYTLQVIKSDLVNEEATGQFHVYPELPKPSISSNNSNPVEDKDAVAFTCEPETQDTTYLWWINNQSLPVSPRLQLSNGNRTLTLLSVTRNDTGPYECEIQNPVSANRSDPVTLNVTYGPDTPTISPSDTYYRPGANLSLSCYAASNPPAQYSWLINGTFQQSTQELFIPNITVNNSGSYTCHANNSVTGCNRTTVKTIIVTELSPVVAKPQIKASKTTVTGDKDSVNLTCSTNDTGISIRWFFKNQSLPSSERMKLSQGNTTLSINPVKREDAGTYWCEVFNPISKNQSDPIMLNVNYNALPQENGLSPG
In short: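 Humanized, affinity-matured IgGs from crude supernatant (0.5 μg/ml in HBS-P+) captured on Protein A to ~100 RU. Single-cycle kinetics: CEACAM1 at three concentrations, 70–280 nM two-fold, 80 μl/min, 80 s association each, 150 s dissociation. Reference-channel and blank-run subtraction applied.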

[1] = target: T2, CEACAM6 on transfected HeLa cells (human, UniProt P40199 35-320); experiment: flow cytometry, HeLa-CEACAM6 transfectants, % staining, stacked bars
T2 construct: whole, on cells; also called HeLa-CEACAM6; HeLa C6
T2 sequence (looked up): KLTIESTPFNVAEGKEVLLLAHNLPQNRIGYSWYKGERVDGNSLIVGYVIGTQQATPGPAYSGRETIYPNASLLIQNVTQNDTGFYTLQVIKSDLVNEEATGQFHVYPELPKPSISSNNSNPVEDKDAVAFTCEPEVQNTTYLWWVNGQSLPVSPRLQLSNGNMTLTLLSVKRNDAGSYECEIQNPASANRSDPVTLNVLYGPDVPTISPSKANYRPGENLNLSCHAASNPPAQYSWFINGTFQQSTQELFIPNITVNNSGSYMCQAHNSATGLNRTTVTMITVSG
Excerpt: FIG. 11 illustrates the binding selectivity of different affinity-matured CEACAM1 antibodies. […] HELA cells were transfected with vector alone (HeLa-Neo) or vectors expressing CEACAM1, CEACAM3, CEACAM5, or CEACAM6, respectively, and stained with the indicated antibodies. […] MOPC=mouse IgG1 control antibody. Mouse antibodies as positive control for transfected CEACAM isoforms: Col-1=CEACAM3 and CEACAM5 antibody. 9A6=CEACAM6 antibody. T84.1=CEACAM cross-reactive antibody and T84.66=CEACAM5 antibody. Only 2nd FITC=No primary antibody, only secondary FITC conjugated antibody. […] Data for affinity-matured antibodies 9B3_8H3/Vκ8 S29A, 8H3_9B3/CP08_E05, and 8H3_9C2/CPO08_F05, as well as data for CEACAM8 antibody 80H3 were omitted from the FIG. due to an unusually high background signal.

[2] = target: T2, CEACAM6 on transfected HeLa cells; experiment: flow cytometry titration, HeLa-CEACAM6 transfectants, anti-human IgG4 FITC
Procedure: FIGS. 31A and 31B show flow cytometry analyses of stable HeLa CEACAM1 (HeLa C1) transfectant, stable HeLa CEACAM3 transfectant (HeLa C3), stable HeLa CEACAM5 transfectant (HeLa C5), stable HeLa CEACAM6 transfectant (HeLa C6), and stable HeLa CEACAM8 transfectant (HeLa C8). FIG. 31A: 5×10\hat{ }4 indicated HeLa transfectants were washed with staining buffer and CP08H03/Vκ8 S29A (labeled “CP08”, left) or CEACAM1 antibody CM-24 was incubated at room temperature for 30 min, washed twice with staining buffer, and stained for anti-human IgG4 Fluorescein isothiocyanate (FITC) conjugated secondary antibody at room temperature for 20 min. Fluorescence intensities were determined by flow cytometry. Live cells were determined by 4′,6-diamidino-2-phenylindole (DAPI) staining as shown on the y-axis. Staining with the respective CEACAM1 antibody is shown on the x-axis. […]
The cervical adenocarcinoma cell line HeLa (ATCC No CCL-2) as well as transfected cell lines HeLaCEACAM1, HeLaCEACAM3, HeLaCEACAM5, HeLaCEACAM6 and HeLaCEACAM8 used for flow cytometry experiments were cultured at 37° C., 5.0% CO₂ in Dulbecco's modified Eagle's medium supplemented with 10% fetal bovine serum, penicillin (100 U/ml) and dihydrostreptomycin (100 μg/ml). […] Data were acquired with a Cytoflex flow cytometer (Invitrogen) and analyzed with FlowJo software (TreeStar, V7.6.5 for Windows).

- Kd (His-tagged CEACAM1): 560 nM
- koff (His-tagged CEACAM1): 0.053 s⁻¹
- kon (His-tagged CEACAM1): 94000 M⁻¹ s⁻¹
- relative KD to parent (His-tagged CEACAM1): 1
- binding result [1]: no binding
B1: VH1/Vκ8 S29A (antibody, IgG4, V domains shown)
VH: EVQLLESGGGLVQPGGSLRLSCAASGFIFSSHGMSWVRQAPGKGLEWVATISSGGTYTYYPDSVKGRFTISRDNSKNTLYLQMNSLKAEDTAMYYCARHDFDYDAAWFAYWGQGTLVTVSS
VL: EIVLTQSPATLSLSPGERATLSCRANSAVSYMYWYQQKPGQAPRPWIYLTSNRATGVPARFSGSGSGTDYTLTISSLEPEDFAVYYCQQWSSNPPTFGQGTKLEIK
notes: IgG4 (S241P), kappa; also called Parent; Parent (VH1/Vκ8 S29A)

- binding result [2]: no binding (tested: 100 ug/ml)
B2: CP08H03/Vκ8 S29A (antibody, IgG4, V domains shown)
VH: B1 VH with D104F, A105P, A106Y, Y110H
VL: B1 VL
notes: IgG4 (S241P), kappa; also called CP08_H03/Parent VL; CP08_H03/Parental

- binding result [1]: no binding
B3: CP08H03/CP08F05 (antibody, V domains shown)
VH: B1 VH with D104F, A105P, A106Y, Y110H
VL: B1 VL with S91T
notes: IgG4 (S241P), kappa
